The text below walks through data of paper PMC2757162 (Journal of molecular biology, 2008).

The data set concerns the molecule itself.

B1: Herpes simplex virus type 1 SSB/recombination protein ICP8 (natural protein)
chain: METKPKTATTIKVPPGPLGYVYARACPSEGIELLALLSARSGDSDVAVAPLVVGLTVESGFEANVAVVVGSRTTGLGGTAVSLKLTPSHYSSSVYVFHGGRHLDPSTQAPNLTRLCERARRHFGFSDYTPRPGDLKHETTGEALCERLGLDPDRALLYLVVTEGFKEAVCINNTFLHLGGSDKVTIGGAEVHRIPVYPLQLFMPDFSRVIAEPFNANHRSIGEKFTYPLPFFNRPLNRLLFEAVVGPAAVALRCRNVDAVARAAAHLAFDENHEGAALPADITFTAFEASQGKTPRGGRDGGGKGAAGGFEQRLASVMAGDAALALESIVSMAVFDEPPTDISAWPLFEGQDTAAARANAVGAYLARAAGLVGAMVFSTNSALHLTEVDDAGPADPKDHSKPSFYRFFLVPGTHVAANPQVDREGHVVPGFEGRPTAPLVGGTQEFAGEHLAMLCGFSPALLAKMLFYLERCDGAVIVGRQEMDVFRYVADSNQTDVPCNLCTFDTRHACVHTTLMRLRARHPKFASAARGAIGVFGTMNSMYSDCDVLGNYAAFSALKRADGSETARTIMQETYRAATERVMAELETLQYVDQAVPTAMGRLETIITNREALHTVVNNVRQVVDREVEQLMRNLVEGRNFKFRDGLGEANHAMSLTLDPYACGPCPLLQLLGRRSNLAVYQDLALSQCHGVFAGQSVEGRNFRNQFQPVLRRRVMDMFNNGFLSAKTLTVALSEGAAICAPSLTAGQTAPAESSFEGDVARVTLGFPKELRVKSRVLFAGASANASEAAKARVASLQSAYQKPDKRVDILLGPLGFLLKQFHAAIFPNGKPPGSNQPNPQWFWTALQRNQLPARLLSREDIETIAFIKKFSLDYGAINFINLAPNNVSELAMYYMANQILRYCDHSTYFINTLTAIIAGSRRPPSVQAAAAWSAQGGAGLEAGARALMDAVDAHPGAWTSMFASCNLLRPVMAARPMVVLGLSISKYYGMAGNDRVFQAGNWASLMGGKNACPLLIFDRTRKFVLACPRAGFVCAASSLGGGAHESSLCEQLRGIISEGGAAVASSVFVATVKSLGPRTQQLQIEDWLALLEDEYLSEEMMELTARALERGNGEWSTDAALEVAHEAEALVSQLGNAGEVFNFGDFGCEDDNATPFGGPGAPGPAFAGRKRAFHGDDPFGEGPPDKKGDLTLDML
B1: the binding result is “binds”.
